Results published in article PMC6181972, “Indoleacetate decarboxylase is a glycyl radical enzyme catalysing the formation of malodorant skatole” (Nature Communications, 2018).

Tests used:
purified protein = substrate: O=C(O)Cc1c[nH]c2ccccc12; assay: purified protein; details: activated with 100 nM OsIADAE, 1 mM SAM, 0.2 mM Ti(III) citrate, 20 mM Tris-HCl pH 7.5, 0.1 M KCl, 30 °C, anaerobic
[1] = biological target: the molecule itself; assay: SEC; size exclusion chromatography of purified recombinant OsIAD; column and buffer not told in the text shown (Supplementary Fig. 1c); dimer to monomers

B1: Olsenella scatoligenes indoleacetate decarboxylase (OsIAD) (enzyme, UniProt A0A100YXA1 1-878, looked up)
chain: MQESLVLEMLQTGKTATWPANSGTQDGEGFVDKEVKGVPSTDRTKRMKERFMNAKCKMDMEAPIAYTKAWRMYEGKPLYVRRGLSYKYMLEHLTPVIRPDELITMSKTRYDRGATQVPQFATDFMISFLTQAEDQKDEAKLFSVEGKDEAHTVDEEGWTPVGQLFSIREEEVKPMLEVLEYWKTRCVENVSDEWMKTSFPMYQDYINAKKVGLFPGSGLHAGCDGRWIPAYDVVLGGLNKVIDECKKNIAKTVVTTKDVADKVFFWQGCIYACEGAIAWANNYAKEARRLAEITPEPRKTELLQMAERLERVPAEPPRNFMEAVQALWTAQILIISDSLALGVSPGRWGKLLEPYYEKDLADGVITKEQALEVMEMLRIKFSTEEYITPSLWAAMASSNSFMNLAVGGLDPKTGQCTDNELEDLILQAGINMPTPQPTLSMLLSNKTSDHLALKAAECTKAGNGYPAWFNYDMMVEHNLWCYADEGITMEDARNCALSGCVENGLAGTGHPIAHPAFYNEGKTIELALHEGVDPRTGIKVMDGIKPVESYEDVWNNFVKIREHFMRVYMRYWNEVVACQRDIHPKIMGSIFMHDCVENGRPVDNLGCRYNGSVTLLDSGTVNVVNGLAAMKKLIWEDHKYTYAEFKEAMDNNFGFVLGAEKGNFSMLNQEIDPEKHMKYAQIHRDILNCPKFGNDDDFVDDIFVKVWQDYDRVTGSETTYNGYRWITAALSISAHGPHGRVTGATPDGRLAGVTLCDGILSASPGTDVNGPIALIRSGVKLDPTTFASVQLNMKFHPSAIRGEEGSKNFVDFIRSYFNMGGYHVQFNIVDSKMLRDAQDKPQNYRDLMVRVAGFSAYWNELGKPIQDEVIARTEYDAL
notes: Indoleacetate decarboxylase (glycyl radical enzyme) of Olsenella scatoligenes, UniProt A0A100YXA1; codon-optimized synthetic gene in pET-28a-HT (His6-tag, TEV protease cleavage site, then the construct); also called HT-IAD; A0A100YXA1; source: E. coli BL21 (DE3), purified (TALON, ammonium sulfate precipitation, G25 desalting)
Purified protein
  Km: 370 ± 60 µM
  kcat: 2.0 ± 0.1 s^–1
[1]
  stoichiometry N: 2
